Source: patent US20250066503A1, “CELL INJURY INDUCING THERAPEUTIC DRUG FOR USE IN CANCER THERAPY” (CHUGAI SEIYAKU KABUSHIKI KAISHA, priority 2016, published 2025)
Changes are numbered by the printed parent chain.

B1: TR01H040-E22Hh/none-Hi-Kn010G3/L0200-k0 (antibody, V domains shown)
VH: QVQLVESGGGLVQPGRSLRLSCAASGFTFSNAWMHWVRQAPGKGLEWVAQIKDKSQNYATYYAESVKGRFTISRADSKNSIYLQMNSLKTEDTAVYYCRYVHYSASYGVDAWGQGTTVTVSS
VL: DIVMTQSPLSLPVTPGEPASISCRPSQSPVHSNRNTYLHWYQQKPGQAPRLLIYKVSNRFSGVPDRFSGSGSGTDFTLKISRVEAEDVGVYYCGQGTQVPYTFGQGTKLEIK
notes: one-arm
B2: TR01H040-E22Hh/none-Hi-Kn010G3/L0224-k0 (antibody, V domains shown)
VH: B1 VH
VL: B1 VL with P25S, L38I, S61P, G94Y
notes: one-arm
B3: TR01H040-E22Hh/none-Hi-Kn010G3/L0217-k0 (antibody, V domains shown)
VH: B1 VH
VL: B1 VL with P29L, S61R
notes: one-arm
B4: TR01H040-E22Hh/none-Hi-Kn010G3/L0220-k0 (antibody, V domains shown)
VH: B1 VH
VL: B1 VL with P25S, S28P, P29L, S61R, G94Y
notes: one-arm
B5: TR01H040-E22Hh/none-Hi-Kn010G3/L0207-k0 (antibody, V domains shown)
VH: B1 VH
VL: B1 VL with P25S, S61R, G94Y
notes: one-arm
B6: TR01H040-E22Hh/none-Hi-Kn010G3/L0240-k0 (antibody, V domains shown)
VH: B1 VH
VL: B1 VL with P25S, Q27E, G94Y
notes: one-arm
B7: TR01H067-E22Hh/none-Hi-Kn010G3/L0226-k0 (antibody, V domains shown)
VH: B1 VH with A75D, I81L, S104A
VL: B1 VL with P25S, L38I, G94I
notes: one-arm
B8: TR01H040-E22Hh/none-Hi-Kn010G3/L0248-k0 (antibody, V domains shown)
VH: B1 VH
VL: B1 VL with L38I, H39Q, G94Y
notes: one-arm
B9: TR01H040-E22Hh/none-Hi-Kn010G3/L0216-k0 (antibody, V domains shown)
VH: B1 VH
VL: B1 VL with P25S, S28P, P29L, S61R
notes: one-arm
B10: TR01H040-E22Hh/none-Hi-Kn010G3/L0246-k0 (antibody, V domains shown)
VH: B1 VH
VL: B1 VL with P25S, L38I, H39Q, G94S
notes: one-arm
B11: TR01H067-E22Hh/none-Hi-Kn010G3/L0215-k0 (antibody, V domains shown)
VH: B1 VH with A75D, I81L, S104A
VL: B1 VL with P25S, S28P, L38I
notes: one-arm
B12: TR01H061-E22Hh/none-Hi-Kn010G3/L0200-k0 (antibody, V domains shown)
VH: B1 VH with S104A, A111I
VL: B1 VL
notes: one-arm
B13: TR01H040-E22Hh/none-Hi-Kn010G3/L0262-k0 (antibody, V domains shown)
VH: B1 VH
VL: B1 VL with P25S, S28P, G94A
notes: one-arm
B14: TR01H040-E22Hh/none-Hi-Kn010G3/L0249-k0 (antibody, V domains shown)
VH: B1 VH
VL: B1 VL with L38I, H39Q, G94S
notes: one-arm
B15: TR01H040-E22Hh/none-Hi-Kn010G3/L0226-k0 (antibody, V domains shown)
VH: B1 VH
VL: B1 VL with P25S, L38I, G94I
notes: one-arm
B16: TR01H040-E22Hh/none-Hi-Kn010G3/L0227-k0 (antibody, V domains shown)
VH: B1 VH
VL: B1 VL with P25S, L38I, G94L
notes: one-arm
B17: TR01H040-E22Hh/none-Hi-Kn010G3/L0213-k0 (antibody, V domains shown)
VH: B1 VH
VL: B1 VL with P25S, L38I, S61R
notes: one-arm
B18: TR01H040-E22Hh/none-Hi-Kn010G3/L0237-k0 (antibody, V domains shown)
VH: B1 VH
VL: B1 VL with P25S, S28E, L38I, G94Y
notes: one-arm
B19: TR01H040-E22Hh/none-Hi-Kn010G3/TR01L008-k0 (antibody, V domains shown)
VH: B1 VH
VL: B1 VL with R24Q, P25A, Q27E, P29L, S61R
notes: one-arm
B20: TR01H067-E22Hh/none-Hi-Kn010G3/L0248-k0 (antibody, V domains shown)
VH: B1 VH with A75D, I81L, S104A
VL: B1 VL with L38I, H39Q, G94Y
notes: one-arm
B21: TR01H061-E22Hh/none-Hi-Kn010G3/L0215-k0 (antibody, V domains shown)
VH: B1 VH with S104A, A111I
VL: B1 VL with P25S, S28P, L38I
notes: one-arm
B22: TR01H040-E22Hh/none-Hi-Kn010G3/L0234-k0 (antibody, V domains shown)
VH: B1 VH
VL: B1 VL with P25S, S28E, S61R
notes: one-arm
B23: TR01H040-E22Hh/none-Hi-Kn010G3/L0231-k0 (antibody, V domains shown)
VH: B1 VH
VL: B1 VL with P25S, L38I, G94Y, V99W
notes: one-arm
B24: TR01H040-E22Hh/none-Hi-Kn010G3/L0250-k0 (antibody, V domains shown)
VH: B1 VH
VL: B1 VL with L38I, H39Q, G94I
notes: one-arm
B25: TR01H040-E22Hh/none-Hi-Kn010G3/L0202-k0 (antibody, V domains shown)
VH: B1 VH
VL: B1 VL with P25S, N35W
notes: one-arm
B26: TR01H040-E22Hh/none-Hi-Kn010G3/L0239-k0 (antibody, V domains shown)
VH: B1 VH
VL: B1 VL with P25S, Q27E, S61R
notes: one-arm
B27: TR01H040-E22Hh/none-Hi-Kn010G3/L0214-k0 (antibody, V domains shown)
VH: B1 VH
VL: B1 VL with P25S, S28P, S61R
notes: one-arm
B28: TR01H040-E22Hh/none-Hi-Kn010G3/L0215-k0 (antibody, V domains shown)
VH: B1 VH
VL: B1 VL with P25S, S28P, L38I
notes: one-arm
B29: TR01H040-E22Hh/none-Hi-Kn010G3/TR01L015-k0 (antibody, V domains shown)
VH: B1 VH
VL: B1 VL with P25S, Q42L, A48S, R50Q
notes: one-arm
B30: TR01H040-E22Hh/none-Hi-Kn010G3/L0210-k0 (antibody, V domains shown)
VH: B1 VH
VL: B1 VL with P25S, N35W, G94Y
notes: one-arm
B31: TR01H040-E22Hh/none-Hi-Kn010G3/L0205-k0 (antibody, V domains shown)
VH: B1 VH
VL: B1 VL with P25S, S61W
notes: one-arm
B32: TR01H040-E22Hh/none-Hi-Kn010G3/L0247-k0 (antibody, V domains shown)
VH: B1 VH
VL: B1 VL with P25S, L38I, H39Q, G94I
notes: one-arm
B33: TR01H040-E22Hh/none-Hi-Kn010G3/TR01L009-k0 (antibody, V domains shown)
VH: B1 VH
VL: B1 VL with P25S, P29L, Q42L, A48S, R50Q, S61R
notes: one-arm
B34: TR01H040-E22Hh/none-Hi-Kn010G3/TR01L016-k0 (antibody, V domains shown)
VH: B1 VH
VL: B1 VL with P25S, Q42L, A48S, R50Q, G94Y
notes: one-arm
B35: TR01H040-E22Hh/none-Hi-Kn010G3/TR01L010-k0 (antibody, V domains shown)
VH: B1 VH
VL: B1 VL with P25S, P29L, S61R, L109V, K112E
notes: one-arm
B36: TR01H067-E22Hh/none-Hi-Kn010G3/L0200-k0 (antibody, V domains shown)
VH: B1 VH with A75D, I81L, S104A
VL: B1 VL
notes: one-arm
B37: TR01H040-E22Hh/none-Hi-Kn010G3/L0243-k0 (antibody, V domains shown)
VH: B1 VH
VL: B1 VL with P25S, Q27E, S28P, S61R
notes: one-arm
B38: TR01H040-E22Hh/none-Hi-Kn010G3/L0232-k0 (antibody, V domains shown)
VH: B1 VH
VL: B1 VL with P25S, Q27E, P29L
notes: one-arm
B39: TR01H061-E22Hh/none-Hi-Kn010G3/L0226-k0 (antibody, V domains shown)
VH: B1 VH with S104A, A111I
VL: B1 VL with P25S, L38I, G94I
notes: one-arm
B40: TR01H040-E22Hh/none-Hi-Kn010G3/L0228-k0 (antibody, V domains shown)
VH: B1 VH
VL: B1 VL with P25S, L38I, G94V
notes: one-arm
B41: TR01H040-E22Hh/none-Hi-Kn010G3/L0236-k0 (antibody, V domains shown)
VH: B1 VH
VL: B1 VL with P25S, S28E, S61W, G94Y
notes: one-arm
B42: TR01H040-E22Hh/none-Hi-Kn010G3/L0242-k0 (antibody, V domains shown)
VH: B1 VH
VL: B1 VL with P25S, Q27E, L38I, G94Y
notes: one-arm
B43: TR01H040-E22Hh/none-Hi-Kn010G3/L0219-k0 (antibody, V domains shown)
VH: B1 VH
VL: B1 VL with P25S, P29L, L38I, S61R
notes: one-arm
B44: TR01H040-E22Hh/none-Hi-Kn010G3/L0235-k0 (antibody, V domains shown)
VH: B1 VH
VL: B1 VL with P25S, S28E, G94Y
notes: one-arm
B45: TR01H040-E22Hh/none-Hi-Kn010G3/L0218-k0 (antibody, V domains shown)
VH: B1 VH
VL: B1 VL with P25S, P29L, S61R, G94Y
notes: one-arm
B46: TR01H040-E22Hh/none-Hi-Kn010G3/L0241-k0 (antibody, V domains shown)
VH: B1 VH
VL: B1 VL with P25S, Q27E, S61W, G94Y
notes: one-arm
B47: TR01H040-E22Hh/none-Hi-Kn010G3/L0223-k0 (antibody, V domains shown)
VH: B1 VH
VL: B1 VL with P25S, L38I, F60L, G94Y
notes: one-arm
B48: TR01H040-E22Hh/none-Hi-Kn010G3/L0238-k0 (antibody, V domains shown)
VH: B1 VH
VL: B1 VL with P25S, Q27E, S28P, G94Y
notes: one-arm
B49: TR01H040-E22Hh/none-Hi-Kn010G3/L0233-k0 (antibody, V domains shown)
VH: B1 VH
VL: B1 VL with P25S, S28E, P29L
notes: one-arm

Target: T1, soluble human CD3 epsilon chain (human, UniProt P07766 23-126)
T1 construct: also called CD3ε
Assay: SPR

T1 sequence (P07766 23-126 limits assumed): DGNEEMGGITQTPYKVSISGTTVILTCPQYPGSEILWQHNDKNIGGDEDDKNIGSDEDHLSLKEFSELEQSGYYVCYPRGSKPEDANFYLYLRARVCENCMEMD

Kd	Binder
28.7 nM	B1
5.06 nM	B2
20.7 nM	B3
9.15 nM	B4
2.6 nM	B5
2.17 nM	B6
132 nM	B7
78.9 nM	B8
25.3 nM	B9
92.8 nM	B10
74.1 nM	B11
12.7 nM	B12
18.1 nM	B13
111 nM	B14
80.1 nM	B15
101 nM	B16
20.1 nM	B17
10.2 nM	B18
29.3 nM	B19
139 nM	B20
15.4 nM	B21
24 nM	B22
7.75 nM	B23
21.5 nM	B24
61.9 nM	B25

Kd	Binder
23.1 nM	B26
20.2 nM	B27
33.7 nM	B28
39.5 nM	B29
5.06 nM	B30
34.2 nM	B31
100 nM	B32
35.6 nM	B33
2.52 nM	B34
32.8 nM	B35
60.3 nM	B36
24.6 nM	B37
38.6 nM	B38
47.1 nM	B39
16 nM	B40
5.64 nM	B41
3.58 nM	B42
39.4 nM	B43
2.81 nM	B44
8.2 nM	B45
3.48 nM	B46
8.15 nM	B47
2.91 nM	B48
40.1 nM	B49
